Measurements from patent US20130115681.
Changes are numbered by the printed parent chain.

Experiments:
Assay in all cases: cleavage_in_vitro
[1] = tested on: T1, BspQI-HF K279P/R388F (Bacillus sphaericus); settings: NEB4, 50 C
T1 sequence: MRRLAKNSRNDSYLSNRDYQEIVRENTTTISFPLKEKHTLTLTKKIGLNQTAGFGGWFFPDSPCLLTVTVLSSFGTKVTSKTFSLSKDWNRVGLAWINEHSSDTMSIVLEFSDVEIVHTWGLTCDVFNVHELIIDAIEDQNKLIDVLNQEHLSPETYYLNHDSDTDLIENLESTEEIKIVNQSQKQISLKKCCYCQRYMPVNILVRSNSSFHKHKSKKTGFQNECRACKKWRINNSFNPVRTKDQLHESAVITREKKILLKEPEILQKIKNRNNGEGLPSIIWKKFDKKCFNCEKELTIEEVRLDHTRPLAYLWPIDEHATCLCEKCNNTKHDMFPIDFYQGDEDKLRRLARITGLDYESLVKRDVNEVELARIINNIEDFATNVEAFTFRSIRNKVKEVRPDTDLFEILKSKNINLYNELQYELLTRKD

[2] = tested on: BsmBI-HF N185Y/R232A; settings: NEB4, 55 C
[3] = target: T2, BamHI-HF E163A/E167T (Bacillus amyloliquefaciens) (UniProt P23940); settings: NEB4, 37 C
T2 sequence: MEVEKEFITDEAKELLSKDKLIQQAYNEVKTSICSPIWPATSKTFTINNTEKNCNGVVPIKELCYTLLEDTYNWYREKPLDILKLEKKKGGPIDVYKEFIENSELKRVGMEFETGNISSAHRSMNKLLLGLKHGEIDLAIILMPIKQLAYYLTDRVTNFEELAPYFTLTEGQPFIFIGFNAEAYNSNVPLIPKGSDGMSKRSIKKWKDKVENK

[4] = target: T3, ScaI-HF H193A/S201F (Streptomyces caespitosus) (UniProt O52691); settings: NEB4, 37 C
T3 sequence: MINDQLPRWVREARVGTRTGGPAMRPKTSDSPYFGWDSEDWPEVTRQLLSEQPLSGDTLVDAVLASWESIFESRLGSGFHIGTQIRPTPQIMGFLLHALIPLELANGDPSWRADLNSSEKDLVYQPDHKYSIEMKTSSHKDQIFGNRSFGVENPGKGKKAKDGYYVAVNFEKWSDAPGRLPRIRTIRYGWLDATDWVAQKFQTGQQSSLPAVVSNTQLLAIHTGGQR

[5] = tested on: BstXI; settings: NEB4, 55 C
[6] = target: T4, PstI-HF D91A (Providencia stuartii 164) (UniProt P00640); settings: NEB4, 37 C
T4 sequence: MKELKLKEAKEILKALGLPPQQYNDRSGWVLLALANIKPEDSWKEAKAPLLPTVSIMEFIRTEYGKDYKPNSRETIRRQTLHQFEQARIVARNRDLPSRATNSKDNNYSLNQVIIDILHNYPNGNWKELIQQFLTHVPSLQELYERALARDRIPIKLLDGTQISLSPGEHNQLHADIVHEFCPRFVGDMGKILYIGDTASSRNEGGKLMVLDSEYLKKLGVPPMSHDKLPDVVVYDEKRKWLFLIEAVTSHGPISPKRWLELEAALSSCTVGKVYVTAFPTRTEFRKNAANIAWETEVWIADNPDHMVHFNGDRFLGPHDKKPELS

[7] = tested on: BstXI-HF N65A; settings: NEB4, 55 C
[8] = tested on: T5, NcoI-HF A2T/R31A (Nocardia corallina); settings: NEB4, 37 C
T5 sequence: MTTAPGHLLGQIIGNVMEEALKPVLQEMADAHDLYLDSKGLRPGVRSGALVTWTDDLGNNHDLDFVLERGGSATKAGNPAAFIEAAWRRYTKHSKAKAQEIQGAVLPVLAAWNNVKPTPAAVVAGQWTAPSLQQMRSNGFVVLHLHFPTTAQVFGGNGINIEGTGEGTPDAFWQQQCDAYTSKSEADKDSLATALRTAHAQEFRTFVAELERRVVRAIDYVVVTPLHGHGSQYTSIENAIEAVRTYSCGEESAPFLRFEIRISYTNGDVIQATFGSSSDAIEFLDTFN

[9] = tested on: T6, SbfI-HF K251A (Streptomyces species Bf-61?); settings: NEB4, 37 C
T6 sequence: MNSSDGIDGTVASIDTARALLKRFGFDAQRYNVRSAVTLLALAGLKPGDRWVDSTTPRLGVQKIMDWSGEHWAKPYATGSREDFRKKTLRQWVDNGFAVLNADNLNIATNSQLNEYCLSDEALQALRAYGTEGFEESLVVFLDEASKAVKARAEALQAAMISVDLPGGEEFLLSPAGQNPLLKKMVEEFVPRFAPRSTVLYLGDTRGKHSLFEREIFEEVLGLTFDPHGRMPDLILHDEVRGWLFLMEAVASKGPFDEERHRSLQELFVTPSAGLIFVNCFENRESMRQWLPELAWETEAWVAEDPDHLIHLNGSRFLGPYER

[10] = tested on: T7, SbfI (Streptomyces species Bf-61?); settings: NEB4, 37 C
T7 sequence: T6 sequence with A251K

[11] = target: T8, HindIII (Haemophilus influenzae Rd) (UniProt P43870); settings: NEB4, 37 C; FI 250 in NEB2
T8 sequence: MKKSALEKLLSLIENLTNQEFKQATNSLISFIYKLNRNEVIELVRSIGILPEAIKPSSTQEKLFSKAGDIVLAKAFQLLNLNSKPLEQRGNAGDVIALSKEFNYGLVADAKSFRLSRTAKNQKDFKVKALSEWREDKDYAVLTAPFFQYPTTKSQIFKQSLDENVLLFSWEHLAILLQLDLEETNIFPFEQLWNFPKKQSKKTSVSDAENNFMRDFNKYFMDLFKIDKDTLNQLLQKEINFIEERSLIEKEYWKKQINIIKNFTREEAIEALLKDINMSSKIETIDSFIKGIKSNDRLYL

[12] = tested on: T9, SphI-HF K100A (Streptomyces phaeochromogenes); settings: NEB4, 37 C
T9 sequence: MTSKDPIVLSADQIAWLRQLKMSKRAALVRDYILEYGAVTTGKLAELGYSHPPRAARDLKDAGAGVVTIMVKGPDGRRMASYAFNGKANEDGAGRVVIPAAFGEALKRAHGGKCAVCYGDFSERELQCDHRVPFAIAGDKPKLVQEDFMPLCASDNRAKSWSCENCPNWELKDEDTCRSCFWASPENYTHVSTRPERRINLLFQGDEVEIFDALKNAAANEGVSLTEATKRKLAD

[13] = target: T10, SalI-HF R107A (Streptomyces albus G) (UniProt Q53608); settings: NEB4, 37 C
T10 sequence: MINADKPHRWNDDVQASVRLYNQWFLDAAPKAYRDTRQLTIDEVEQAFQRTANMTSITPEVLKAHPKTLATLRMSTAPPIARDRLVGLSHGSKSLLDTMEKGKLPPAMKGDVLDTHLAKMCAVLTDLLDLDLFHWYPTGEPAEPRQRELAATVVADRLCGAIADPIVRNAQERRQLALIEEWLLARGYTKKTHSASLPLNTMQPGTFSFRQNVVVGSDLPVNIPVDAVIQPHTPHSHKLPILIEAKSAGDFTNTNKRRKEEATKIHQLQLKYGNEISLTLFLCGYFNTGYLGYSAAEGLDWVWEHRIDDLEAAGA

[14] = target: T11, SalI (Streptomyces albus G) (UniProt Q53608); settings: NEB4, 37 C
T11 sequence: T10 sequence with A107R

Substance: pUC19
- activity (fidelity index) [1]: 4000

Substance: lambda phage DNA
- activity (fidelity index) [2]: 500
- activity (fidelity index) [3]: 4000
- activity (fidelity index) [4]: 1000
- activity (fidelity index) [5]: 4
- activity (fidelity index) [6]: 4000
- activity (fidelity index) [7]: 250
- activity (fidelity index) [8]: 64000
- activity (fidelity index) [9]: 250
- activity (fidelity index) [10]: 8
- activity (fidelity index) [11]: 32
- activity (fidelity index) [12]: 8000

Substance: HindIII-digested lambda DNA
- activity (fidelity index) [13]: 32000
- activity (fidelity index) [14]: 1
